Results: article PMC8500521

Target: HR2 (heptad repeat 2) polypeptide of SARS-CoV-2 spike protein (SARS-CoV-2) (UniProt P0DTC2)
Assay: AUC; sedimentation velocity, 50,000 rpm, 20 C, 50 mM NaCl, 25 mM sodium phosphate pH 6.0, no detergent; monomer to tetramer

“HR2 (heptad repeat 2) polypeptide of SARS-CoV-2 spike protein (from UniProt P0DTC2 1171-1207) (domain or fragment)” showed a monomer population at 250 uM of 10% and a stoichiometry N of 4.
